# This sample holds only a part of the variants without activity.
# B1: TPR 5TU (parent)
# chain: GGAUCUUCUCGAUCUAACAAAAAAGACAAAUCUGCCACAAAGCUUGAGAGCAUCUUCGGAUGCAGAGGCGGCAGCCUUCGGUGGCGCGAUAGCGCCAACGUUCUCAACUAUGACACGCAAAACGCGUGCUCCGUUGAAUGGAGUUUAUCAUG
# Variants of: B1
# Assay: polymerase ribozyme fitness, log enrichment relative to wild type (log ratio); higher = more active; in vitro selection for triplet polymerase activity
# Outline: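 Streptavidin-bead capture of gel-excised extended constructs, followed by RT-PCR, closed a single triplicate in vitro selection round. That round began by annealing PCR-built, transcribed mutant libraries of each subunit of a heterodimeric triplet polymerase ribozyme with a biotinylated primer, the partner subunit and triplets, then incubating them frozen at −7 °C. After Illumina sequencing of inputs and outputs, genotypes needed ≥10 input reads and ≥1 read per output. Fitness is the base-2 logarithm of genotype enrichment over wild-type enrichment, using inverse-variance-weighted replicate averages.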
row,Variant,polymerase ribozyme fitness (log ratio)
1,A21C C93A C99U G136U A142U,≤ -4.2
2,A21G A24C U31C C69G U148C,≤ -4.2
3,A21U G71C C93A,≤ -4.2
4,A22C A28U C105U C123U,≤ -4.2
5,A21C G42U C69G C85U A98U A106G A120U,≤ -4.2
6,A21G U82A C96A U101G A121U,0.493
7,A21U C27U C35A C57A G59C G74C G86U A89G U101G,≤ -4.2
8,A21C C35U U44A U53A U101G,≤ -4.2
9,A21U A23G,-2.94
10,A21U C79U C93G,≤ -4.2
11,A21U A49G U55A G84A U104C A137U G140C A150C,≤ -4.2
12,A21U C105G A113G C116U,-4.07
13,A21U C118U A119G,-3.17
14,A21U A52G C87U C114U U144G,-3.22
15,A21U A26U C57U G84U,-3.6
16,A21U C36G C51U U55C G92U U148A,≤ -4.2
17,A21U G25A A89C,-3.68
18,A21U U33G A49C G50C C54A U82G G92U,≤ -4.2
19,A21G A60G U78C A89U G92A G124U A137G G143U,≤ -4.2
20,A21U A22G G88A A97G A106C C125U,≤ -4.2
21,A21C U33G C87U U145A A150U,≤ -4.2
22,A21U A22U G42A G70C C93U G140C G152U,≤ -4.2
23,A21C C57G G81A A115C,-1.84
24,A21U A47U C93U,-0.679

row,Variant,polymerase ribozyme fitness (log ratio)
1,A21U G48A U82G C95G,≤ -4.2
2,A21U A91G,-2.85
3,A21U A26G U33A A142C G143U U146G C149G,≤ -4.2
4,A21U C32G U55A G83U,≤ -4.2
5,A21G A52C G83U G84A U90C C95G G100A C103G A107U U139G,≤ -4.2
6,A21G C38U A60G C85U,1
7,A22C A24G C51G A52C U56A A121C,≤ -4.2
8,A21C C27A A40U G46A C57U C87G G126A,≤ -4.2
9,A21C A66G,-3.91
10,A21G A49U G50A,-0.423
11,A21U A26C A39G A40C G50A G68C C72G U111C,≤ -4.2
12,A22C A24G A52G G68U,≤ -4.2
13,A21U C36A G86A A98C,-4.1
14,A21G A52U C85U G94U A98U C116U,-1.64
15,A21C A52C C85U G117C,-0.924
16,A21U U56A C96U,-0.871
17,A21C A37U C76U C87U,-1.62
18,A21U A26U G83A A106G,-3.03
19,A21U G50C,-3.57
20,A21U G50U,0.281
21,A21C C35U C75U G92C C96A C108U C131U A142C,≤ -4.2
22,A21C C85U A138U,≤ -4.2
23,A21U A41G C95A C96A,-0.65
24,A21U C96U A97U U127C U139G,-2.62

row,Variant,polymerase ribozyme fitness (log ratio)
1,A21U A24U U44A U53G U78G A97U A137C G141C,≤ -4.2
2,A21G A39U C75U U82A C87A A98G C118U C125U,≤ -4.2
3,A22C A24G A26U A52G G80A C85G G94U C123U,≤ -4.2
4,A22C A28U A121U,≤ -4.2
5,A21G U33G A52C A64C C75G C93G U151G,≤ -4.2
6,A21G A41U C85A C116U,-1.58
7,A21U A28C U53A G88C,≤ -4.2
8,A21U G34A G141A C149G,≤ -4.2
9,A21U U135A,-1.24
10,A21C A110C,≤ -4.2
11,A21C G86A,-0.32
12,A21U C36A A64C G86C,≤ -4.2
13,A21U U78G,≤ -4.2
14,A21G G84U C118U,-1.39
15,A21C G50A U102A,-1.21
16,A21U C96A,-0.443
17,A21U C96G,-0.697
18,A21C U148A,-3.11
19,A21G U31A C95A,0.669
20,A21G C96G,0.474
21,A21G C96U,0.682
22,A21C A41U C57U A119U U134A U144A,-4.17
23,A21U U78C G86C U148A,≤ -4.2
24,A21U A52G C76A G81C C87G C114U A121C U146A,≤ -4.2

row,Variant,polymerase ribozyme fitness (log ratio)
1,A21G G68C C85A G92A G128U,≤ -4.2
2,A21C G25A U127G,≤ -4.2
3,A21U C38U C95U A106U U144C,-2.96
4,A21G A138C,-4
5,A21C G50C A60C A64U A66G G83A,≤ -4.2
6,A21G A37U G59A A60C,-3.22
7,A21G G25A U56A C93U A119G A120C U146C,-3.11
8,A21U G71C C79G A107U A142C,≤ -4.2
9,A21C G25A C63G,-3.29
10,A21C U56G A89C C96A C116G A119C,-2.02
11,A21U G84C A121U A122C,-1.35
12,A21G C93U,-0.895
13,A21U C93G,-2.5
14,A21C G88U A142U,≤ -4.2
15,A21G G92C,0.365
16,A21U C99U C116U C125U,-1.64
17,A21U A40G A60G C96G U146G,-3.99
18,A21G G143A,-0.569
19,A21U G80C C85A U127A,≤ -4.2
20,A21C G68C A142G,-4.13
21,A21C C51U A66G C85G,≤ -4.2
22,A21G A73G C85A C103U A122U,-1.86
23,A21C G25C U53A,-3.09
24,A21G G81A C95U A107G A119C G141U,≤ -4.2

row,Variant,polymerase ribozyme fitness (log ratio)
1,A21C G58C U61G U146G,-3.25
2,A21C A41U C76U G84A C95U U111G,-4.18
3,A21C A60G,0.714
4,A21C A60U,-0.52
5,A21C U134A,-1.79
6,A21C G34C A39U U55A C95G U104A A119G U144G U146A,≤ -4.2
7,A21C U53A A91U C95G U134A U139C G152U,≤ -4.2
8,A21G A41U A64U C85G A98U,≤ -4.2
9,A21U U104C,0.212
10,A21G A37U,-0.976
11,A21G U55G G143C,-1.59
12,A21C G50A C57A C93A U135G,≤ -4.2
13,A21G G42U C54A C72U C76U C79U G84U,≤ -4.2
14,A21G G81U G86U C123A,-1.08
15,A21C U55A,-0.0725
16,A21G G50C C93U C118U A138U U145A,≤ -4.2
17,A21G G25U G50U C54U A73G C93A C108G C129G U135G,≤ -4.2
18,A21U G80U G94A A147U,-0.607
19,A21U A24C U56A C96U A138U,≤ -4.2
20,A21U C57U C93U C96A C116U,-1.6
21,A21U A39C C57U A97G,-2.62
22,A21C U55G G83U,-0.166
23,A21U A26C,-1.48
24,A21U A41C G86A G100U A110C,≤ -4.2

row,Variant,polymerase ribozyme fitness (log ratio)
1,A21C G50A C96U C125G,-1.98
2,A21U G48A U55A C75U G83C A89G A98U C105U G117A U144C,≤ -4.2
3,A21U U33A A40U G58A C85G A98C A106U G126C,≤ -4.2
4,A21G A40C G86U A119G A150C,≤ -4.2
5,A21U C57A A142U,-0.38
6,A21G C27U A52C C93G A110U G152U,≤ -4.2
7,A21U G42C U44A U53A U55A C87U,≤ -4.2
8,A21U G59C G126U,0.721
9,A21U A26G G71A C125U,≤ -4.2
10,A21G U44A G68U G83U A106G A115U C118A A119C C123U U144G,≤ -4.2
11,A21U C57U C93G,-3.29
12,A21G A24G A47G G94C U102G C118U A121U,≤ -4.2
13,A21G U56C C93U,-0.835
14,A21C C36G A41C C72U A73U U78G C96U C118U G128A A142U,≤ -4.2
15,A21G G50C G71C C79A C95G A121U U127G G136U U139C A142C U145G,≤ -4.2
16,A21C U53A C85A,-2.67
17,A21U G141C,0.187
18,A21U G141U,1.9
19,A21C C93G,-3
20,A21C C93U,-1.24
21,A21U U56A G81U C85G A107U G141U U144G,≤ -4.2
22,A21U G34U C51U G86A A89U U145G,≤ -4.2
23,A21U G128A,-3.26
24,A21G C38U,0.63

row,Variant,polymerase ribozyme fitness (log ratio)
1,A22C A26U U56A G59C C87G U111C,≤ -4.2
2,A21C C32G G48A A122G G126U,≤ -4.2
3,A21U U55A C85U U148A,-4.07
4,A21G U151C,-3.8
5,A21U C27A U44G C87A A137U,≤ -4.2
6,A21G A24G C51U U104G A113U,≤ -4.2
7,A21U A24C U33C G94A A107C,≤ -4.2
8,A21C C116U,0.668
9,A21G U139A,-3.9
10,A21U A24U A64C U101G A110G A138C U145A,≤ -4.2
11,A22C A28G C36A U55A C87A C118G,≤ -4.2
12,A21G A41G C93A C132A,-3.75
13,A21G A22U A24G A39U C87A C96A U148C,≤ -4.2
14,A21U C69A G88U A97C,≤ -4.2
15,A21G A30G A89C,≤ -4.2
16,A21C G68U,≤ -4.2
17,A21U C35A G50C A91G U134G,≤ -4.2
18,A21G C114U,-1.69
19,A21U A40C,1.56
20,A21C A41U G71A A98U G136U A147U U148C,≤ -4.2
21,A21U C57A A107C A122G C123U U135C U145A,≤ -4.2
22,A21U C35U C43U U53A A60U G83C A98G A113G,≤ -4.2
23,A21G C87U G140U,-3.6

# — the RNAGym collection of RNA variant scans (doi:10.1073/pnas.2313332121)
